{"source": "paper PMC4363471", "about": "“Crystal Structure of Helicobacter pylori Pseudaminic Acid Biosynthesis N-Acetyltransferase PseH: Implications for Substrate Specificity and Catalysis” (PLoS ONE, 2015)", "target": "the molecule itself", "experiment": "SEC; Superdex 200 HiLoad 26/60 gel filtration, 50 mM Tris/HCl pH 8.0, 200 mM NaCl; molecular weight from a calibration plot of log MW versus retention volume"}
{"protein": "Pseudaminic acid biosynthesis protein H (PseH) from Helicobacter pylori (enzyme, UniProt O25094 1-180, looked up, PseH, N-acetyltransferase (EC 2.3.1.202) of H. pylori, 21 kDa, residues 1-180; the construct carries an additional GIDPFT fragment (cloning artifact); it is probably N-terminal, left after cleavage of a vector tag (surmised); Crystallised with the cofactor acetyl-CoA; also called flagellin modification protein H; FlmH; source: recombinant, purified as previously described [14]) MKKNYSYKNIQAIDFTNLNDGEKLLVLEFRNHPNTALWMYSTFISLKTHLQFIEDLKNSPNHRYFLFKEEGVYLGVGSITKINFFHKHGYLGIYKNPFLKNGGETILKALEFIAFEEFQLHSLHLEVMENNFKAIAFYEKNHYELEGRLKGFISKDKEFIDVLLYYKDKKGYNDQSLLKL", "values": [{"measurement": "stoichiometry N", "result": 2}]}
